This note sets out measurements from patent publication US9555076B2, “Neuregulin based methods and compositions for treating cardiovascular diseases” (Zensun (Shanghai) Science & Technology, Co., Ltd., priority 2002, dated 2017).

Series [1] concerns congestive heart failure caused by inferior vena cava constriction in dog. The experiment in a line: Hemodynamic index by catheterization, TIVCC dog. It is filed as in vivo, crossbred dog. The following applies: for L(−dp/dt) / L(+dp/dt): left ventricle. As for the experimental part: 7F trifid balloon floating catheter was inserted into the right jugular vein, right auricular pressure, right ventricular pressure, pulmonary pressure and pulmonary wedge pressure were recorded.
6F trifid balloon floating catheter was again inserted into left carotid artery, aorta pressure and left ventricle pressure were recorded with physiology recorder with the following major index: LVPmax, LVPmin, +dp/dt, and −dp/dt.

The test system of the next series is Rhesus. The experiment in a line: Rhesus long-term toxicity study, 3 weeks iv plus 3 weeks convalescence. As to conditions: 7.5, 15, 75 μg/kg/d iv 3 weeks.

B1: rhNRG-1 β: Recombinant human neuregulin fragment of 61 amino acid (SEQ ID NO:4), 3 disulfide bonds, expressed in E. coli (protein, listed as Homo sapiens)
chain: SHLVKCAEKEKTFCVNGGECFMVKDLSNPSRYLCKCPNEFTGDRCQNYVMASFYKAEELYQ
modifications: disulfide (positions not given here)
As for B1, in series [1] (1 μg/kg iv daily 5 days), the LVPmax is listed as 102.12 ± 12.42 mmHg, the LVPmin is 0.59 ± 3.05 mmHg and the “L(−dp/dt)” value was −2933 ± 613.44 mmHg/s. Moreover, in series [1] (3 μg/kg iv daily 5 days), the LVPmax is listed as 114.68 ± 17.12 mmHg, the LVPmin is recorded as −1.12 ± 1.34 mmHg, the “L(+dp/dt)” value is 5000.45 ± 1535.88 mmHg/s and the “L(−dp/dt)” value is listed as −3249.52 ± 973.32 mmHg/s. Also, in series [1] (10 μg/kg iv daily 5 days), the LVPmax worked out at 122.87 ± 17.37 mmHg, the LVPmin was −0.69 ± 1.05 mmHg, the “L(+dp/dt)” value was 5104.88 ± 1332.05 mmHg/s and the “L(−dp/dt)” value was −3658.34 ± 1390.97 mmHg/s. Besides, in series [1] (1, 3 and 10 μg/kg iv daily 5 days), the “effect on the right ventricle” value is recorded as “not apparent”. For the same molecule, the animal death result in the series on Rhesus is reported as “No animal death associated with the testing drug”.
